Patent US20080063635A1 (Kyowa Kirin, published 2008)

B1: 4D11-G[1/1/4/4] (antibody, V domains shown)
VH: QLQLQESGPGLLKPSETLSLTCTVSGGSISSPGYYGGWIRQPPGKGLEWIGSIYKSGSTYHNPSLKSRVTISVDTSKNQFSLKLSSVTAADTAVYYCTRPVVRYFGWFDPWGQGTLVTVSS
VL: AIQLTQSPSSLSASVGDRVTITCRASQGISSALAWYQQKPGKAPKLLIYDASNLESGVPSRFSGSGSGTDFTLTISSLQPEDFATYYCQQFNSYPTFGQGTKVEIK
notes: Chimeric heavy chain constant region: CH1 and hinge from human IgG1 (N5KG1), CH2 and CH3 from human IgG4 (N5KG4PE); also called IgG[1/1/4/4]; N5KG1144 with 4D11 variable regions
B2: 4D11-G[4/4/1/1] (antibody, V domains shown)
VH: B1 VH
VL: B1 VL
notes: Chimeric heavy chain constant region: CH1 and hinge from human IgG4 (N5KG4PE, with S228P and L235E), CH2 and CH3 from human IgG1 (N5KG1); also called IgG[4/4/1/1]; N5KG4411 with 4D11 variable regions
B3: 4D11-G[4/4/4/1] (antibody, V domains shown)
VH: B1 VH
VL: B1 VL
notes: Chimeric heavy chain constant region: CH1, hinge and CH2 from human IgG4 (N5KG4PE, with S228P and L235E), CH3 from human IgG1; also called IgG[4/4/4/1]; N5KG4441 with 4D11 variable regions
B4: 4D11-G[4/4/1/4] (antibody, V domains shown)
VH: B1 VH
VL: B1 VL
notes: Chimeric heavy chain constant region: CH1 and hinge from human IgG4 (N5KG4PE, with S228P and L235E), CH2 from human IgG1, CH3 from human IgG4; also called IgG[4/4/1/4]; N5KG4414 with 4D11 variable regions

molecular target: T1, CD40 (UniProt P25942 21-277, limits assumed); assay: flow cytometry on Ramos cells, R-PE anti-human antibody
T1 construct: whole, on cells; also called CD40 on Ramos cells
T1 sequence (P25942 21-277 limits assumed): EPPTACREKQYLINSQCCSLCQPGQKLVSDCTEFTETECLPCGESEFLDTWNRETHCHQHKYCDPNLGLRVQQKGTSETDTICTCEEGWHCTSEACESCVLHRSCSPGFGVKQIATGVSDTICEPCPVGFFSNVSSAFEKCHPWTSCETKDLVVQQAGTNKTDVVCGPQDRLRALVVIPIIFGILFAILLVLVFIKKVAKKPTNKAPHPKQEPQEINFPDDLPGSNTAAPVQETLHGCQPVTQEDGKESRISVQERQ
Experimental: A Ramos cell line was suspended in a PBS staining buffer (SB) containing 0.1% NaN₃ and 2% FCS at a concentration of 2×10⁶/ml. The cell suspension (100 μl/well) was dispensed into wells of a 96-well round-bottom plate (manufactured by Becton, Dickinson and Company). Each hybridoma culture supernatant (50 μl) was added thereto, followed by incubation at a temperature below freezing for 30 minutes. A human IgG1 antibody to human serum albumin as a negative control was adjusted to a concentration of 2 μg/ml in a hybridoma culture medium. The medium (50 μl) was added to the plate, followed by incubation at a temperature below freezing for 15 minutes. After washing the plate with SB, 50 μl of a 250-fold diluted R-PE fluorescently labeled anti-human antibody (Southern Biotechnology Associates, Inc.) was added to the plate, followed by incubation at a temperature below freezing for 15 minutes. After washing with SB twice, the plate was suspended in 300 to 500 μl of a FACS buffer, and the fluorescence intensity of each cell was measured using FACS (FACSort, FACScan, manufactured by Becton, Dickinson and Company).

Binding result, binds:
B1
B2
B3
B4
